Molecular target: Spi-1 transcription factor, expressed in cells
Test: cell-based or functional assay

“IE2 291-364 expressed in cells from pCDNA 3.1/V5-His IE2 291-364 (peptide)” showed an inhibition of IL-1β promoter luciferase reporter in LPS-treated RAW 264.7 cells of 50% and a maximum inhibition of the 3.8 kbp complete IL1B regulatory region luciferase reporter in LPS-treated RAW264.7 cells of 50 to 75%.

Reference: patent publication US20070265201A1, “INHIBITORS OF IN[…] TRA[…] FROM HCMV PROTEIN IE2” (priority 2005, published 2007)
